Assay results as given in patent US20240327505A1 (published 2024).

Tests used:
[1] = target: SARS-CoV-2 spike S2 protein (SARS-CoV-2, UniProt P0DTC2 686-1213)
SARS-CoV-2 S2 protein = SARS-CoV-2 S2 protein (SARS-CoV-2, UniProt P0DTC2 686-1213)
[2] = target: SARS-CoV-2 Nucleocapsid (N) protein (SARS-CoV-2, UniProt P0DTC9 1-419)
[3] = target: T1, SARS-CoV-2 Spike (S) trimer (SARS-CoV-2, UniProt P0DTC2 16-1213)
[4] = target: T1, SARS-CoV-2 Spike (S) trimer; assay: ELISA, S trimer coated, antibody at 1:50 dilution
[5] = target: SARS-CoV-1 spike protein on pseudovirus (SARS-CoV-1, UniProt P59594 14-1255); assay: cell-based or functional assay
[6] = target: SARS-CoV-2 spike protein on fully infectious (replication-competent) SARS-CoV-2 virus (SARS-CoV-2, UniProt P0DTC2 14-1273); assay: cell-based or functional assay
[7] = target: SARS-CoV-2 Wuhan-1 full-length Spike protein on pseudovirus (SARS-CoV-2, UniProt P0DTC2 14-1273); assay: cell-based or functional assay
[8] = target: T2, SARS-CoV-2 spike S2 protein (SARS-CoV-2, UniProt P0DTC2 686-1213); assay: BLI, as in Example 4
T2 construct: domain: S2

[9] = target: SARS-CoV-2 Spike (S) trimer (SARS-CoV-2, UniProt P0DTC2 16-1213); assay: ELISA on coated S trimer, 1:50
[10] = target: SARS-CoV-2 Envelope (E) protein (SARS-CoV-2, UniProt P0DTC4 1-75); assay: ELISA, Envelope
[11] = target: SARS-CoV-2 Spike (S) trimer (SARS-CoV-2, UniProt P0DTC2 16-1213); assay: ELISA, S trimer coated, antibody at 1:50 dilution; remark: listed apart in the source
[12] = target: SARS-CoV-2 spike S2 protein (SARS-CoV-2, UniProt P0DTC2 686-1213); remark: listed apart in the source
[13] = target: SARS-CoV-2 Nucleocapsid (N) protein (SARS-CoV-2, UniProt P0DTC9 1-419); remark: listed apart in the source

B1: AB-009358 (antibody, V domains shown)
VH: QVHLVQSGAEVKKPGASVKISCKASGYTFTSYYVHWVRQAPGQGLEWMGIIKPSGAGTIYAQKFQGRVTMTRDTSTSTVYMELSSLISEDTAVYYCARGGGVTDRDYWGQGTLVTVSS
VL: QSALTQEASVSATVGQKVTLSCTGNTNNIGGYAVGWHQQISHGAPKTVMFGNSLPSGIPDRFSGSKSGTTASLIISGLQPEDEADYYCSTWDSSLGAVLFGGGTKLTVL
Kd [1]: 478 nM | koff [1]: 0.00176 s⁻¹ | kon [1]: 3690 M⁻¹ s⁻¹

B2: AB-009734 (antibody, V domains shown)
VH: QVHLVQSGAEVKTPGASVRVSCKASGYTFTSHYMHWVRQAPGQGLEWMGLINPSGSGTAYPQHFQGRVTMTRDTSTTTDYMDLSSLRSEDTAMYFCARMERSGAFDLWGQGTMVTVSS
VL: EIVLTQSPGTLSLSPGERATLSCRASQTISSRYLAWYYQKPGQAPRLLIQGSSIRATGIPDRFSGSGSGTDFTLTISRLEPEDFAVYYCQHYGSSPPMYTFGQGTKLEIK
Kd (SARS-CoV-2 S2 protein): 12.4 nM | koff (SARS-CoV-2 S2 protein): 0.000103 s⁻¹ | kon (SARS-CoV-2 S2 protein): 8280 M⁻¹ s⁻¹ | Kd [2]: 22.2 nM | koff [2]: 0.000979 s⁻¹ | kon [2]: 44000 M⁻¹ s⁻¹

B3: AB-010020 (antibody, V domains shown)
VH: QMQLVQSGPEVKKPGTSVKVSCKASGFTFTSSAVQWVRQARGQRLEWIGWIVVGSGNTNYAQKFQERVTITRDMSTSTAYMELSSLRSEDTAVYYCAAPACSSTSCYDGFDIWGQGTMVTVSS
VL: not shown
EC50 [3]: 0.15 nM

B4: AB-010021 (antibody, V domains shown)
VH: QMQLVQSGPEVKKPGTSVKVSCKASGFTFTSSAVQWVRQARGQRLEWIGWIVVGSGNTNYAQKFQERVTITRDMSTSTAYMELSSLRSEDTAVYYCAAVYCSGGSCLDAFDIWGQGTMVTVSS
VL: not shown
EC50 [3]: 0.23 nM

B5: AB-009610 (antibody, V domains shown)
VH: QVQLVQSGAEVKKPGSSVKVSCKASGGTFSNYAISWVRQAPGQGLEWMGRIIPILGIANYAQKFQGRVTITADKSTSTAYMELSSLRSEDTAVYYCATTPYYYDSSGYYLDYWGQGTLVTVSS
VL: not shown
Optical Density (OD; 450 nm) [4]: 2.02 OD 450 nm

B6: AB-009271 (antibody, V domains shown)
VH: EVQLVESGGGLIQPGGSLRLSCAASGFIVSSNYMSWVRQAPGKGLEWVSVIYSGGSTYYADSVKGRFTISRDNSKNTLYLQMNSLRAEDTAVYYCARDYGDFYFDYWGQGTLVTVSS
VL: EIVMTQSPATLSVSPGERATLSCRASQSVSSNLAWYQQKPGQAPRLLIYGASTRATGIPARFSGSGSGTEFTLTISSLQSEDFAVYYCQQYYNWPRTFGQGTKVEIK
Pseudovirus Neturalization [5]: > 50 µg/mL | Neutralization (Infectious virus; (µg/mL)) [6]: 0.181 µg/mL | Pseudovirus Neturalization [7]: 0.058 µg/mL | binding result [8]: no binding

B7: AB-009271 (antibody, V domains shown)
VH: EVQLVESGGGLIQPGGSLRLSCAASGFIVSSNYMSWVRQAPGKGLEWVSVIYSGGSTYYADSVKGRFTISRDNSKNTLYLQMNSLRAEDTAVYYCARDYGDFYFDYWGQGTLVTVSS
VL: EIVMTQSPATLSVSPGERATLSCRASQSVSSNLAWYQQKPGQAPRLLIYGASTRATGIPARFSGSGSGTEFTLTISSLQSEDFAVYYCQQYYNWPRTFGQGTKVEIK
Optical Density (OD; 450 nm) [4]: 2.94 OD 450 nm

B8: AB-009613 (antibody, V domains shown)
VH: EVQLVESGGGLIQPGGSLRLSCAASGFTVSSNYMSWVRQAPGKGLEWVSVIYSGGSTYYADSVKGRFTISRDNSKNTLYLQMNSLRAEDTAVYYCARDYGDFYFDYWGQGTLVTVSS
VL: not shown
Optical Density (OD; 450 nm) [4]: 2.47 OD 450 nm

B9: AB-009620 (antibody, V domains shown)
VH: QITLKESGPTLVKPTQTLTLTCTFSGFSLSTSGVGVGWIRQPPGKALEWLALIYWDDDKRYSPSLKSRLTITKDTSKNQVVLTMTNMDPVDTATYYCAHHEVATVFDYWGQGTLVTVSS
VL: QSALTQPASVSGSPGQSITISCTGTSSDVGAYNYVSWYQQHPGKAPKLMIYEVSNRPSGVSNRFSGSKSGNTASLTISGLQAEDEADYYCSSYTSSSTVFGGGTKLTVL
Pseudovirus Neturalization [5]: > 50 µg/mL | Neutralization (Infectious virus; (µg/mL)) [6]: 13.3 µg/mL | Pseudovirus Neturalization [7]: 1.04 µg/mL | binding result [8]: no binding

B10: AB-009357 (antibody, V domains shown)
VH: QLQLQESGPGLVKPSETLSLTCTVSGGSISSSSYYWGWIRQPPGKGLEWIGSIYYSGSTYYNPSLKSRVTISVDTSKNQFSLKLSSVTAADTAVYYCARHPLSSITIFGVVKREYYFDYWGQGTLVTVSS
VL: DIQMTQSPSSVSASVGDRVTITCRASQGISSWLAWYQQKPGKAPKLLIYAASSLQSGVPSRFSGSGSGTDFTLTISSLQPEDFATYYCQQANSFPLLFGGGTKVEIK
OD 450 nm [9]: 2.77 OD | OD 450 nm [10]: 0.221 OD

B11: AB-009335 (antibody, V domains shown)
VH: QVQLQESGPGLVKPSETLSLTCTVSGGSISSHYWSWIRQPPGKGLEWIGYIYYSGSTNYNPSLKSRVTISVDTSKNQFSLKLSSVTAADTAVYYCARVRREWLAAYFYYGMDVWGQGTTVTVSS
VL: DIQMTQSPSSLSASVGDRVTITCRASQGISNYLAWYQQKPGKVPKLLIYAASTLQSGVPSRFSGSGSGTDFTLTISSLQPEDVATYYCQKYNSAPLTFGGGTKVEIK
OD 450 nm [9]: 1.03 OD | OD 450 nm [10]: 0.4 OD

B12: AB-009629 (antibody, V domains shown)
VH: QVQLQQWGAGLLKPSETLSLTCAVYGGSFSGYYWSWIRQPPGKGLEWIGEINHSGSTNYNPSLKSRVTISVDTSKNQFSLKLSSVTAADTAVYFCARGTGIAVAGVLVNFYYCYYMDVWGKGTTVTVSS
VL: SSELTQDPAVSVALGQTVRITCQGDSLRSYYASWYQQKPGQAPVLVIYGKNNRPSGIPDRFSGSSSGNTASLTITGAQAEDEADYYCNSRDSSGNHLVFGGGTKLTVL
Optical Density (OD; 450 nm) [11]: 0.114 OD 450 nm

B13: AB-009325 (antibody, V domains shown)
VH: QVQLVESGGGVVQPGRSLRLSCAASGFTFNNYGMHWVRQAPGKGLEWVALISYEGSLKYYGDSVRGRFTVSRDNSRNTLYLQMNSLRVDDTAVYYCAKAGGIFAIHYYGMNVWGQGTTVTVSS
VL: QSVLTQPPSVSAAPGQKVTISCSGSSSNIGKNYVSWYRQFPGTAPKLLIYDNNKRPSGIPDRFSGSKSDTSATLGITGLQTGDEADYYCVTWDSSLSAGVFGGGTKLTVL
Kd [12]: 0.0467 nM | koff [12]: 2.77e-07 s⁻¹ | kon [12]: 5930 M⁻¹ s⁻¹ | OD 450 nm [9]: 1.39 OD | OD 450 nm [10]: 0.32 OD

B14: AB-009190 (antibody, V domains shown)
VH: QVQLVESGGGVVQPGRSLRLSCAASGFTFSSYAMHWVRQAPGKGLEWVAVISYDGSNKYYADSVKGRFTISRDNSKNTLYLQMNSLRAEDTAVYYCARLNGDAYYYYGMDVWGQGTTVTVSS
VL: not shown
Kd [13]: 54.1 nM | koff [13]: 0.000947 s⁻¹ | kon [13]: 17500 M⁻¹ s⁻¹ | OD 450 nm [10]: 0.469 OD

B15: AB-009627 (antibody, V domains shown)
VH: QVQLQQWGAGLLKPSETLSLTCAVYGGSFSGYYWSWIRQPPGKGLEWIGEINHSGSTNYNPSLKSRVTISVDTSKNQFSLKLSSVTAADTAVFYCARGGYSSSWYGEKYWFDPWGQGTLVTVSS
VL: QSALTQPRSVSGSPGQSVTISCTGTSSDVGGYNYVSWYQQHPGKAPKLMIYDVSKRPSGVPDRFSGSKSGNTASLTISGLQAEDEADYYCCSYAGSPYVFGTGTKVTVL
Kd (SARS-CoV-2 S2 protein): 0.246 nM | koff (SARS-CoV-2 S2 protein): 2.85e-07 s⁻¹ | kon (SARS-CoV-2 S2 protein): 1160 M⁻¹ s⁻¹
